# Measured values reported in article PMC8092461 (Nature, 2020).
# Target: SARS-CoV-2 RBD (receptor-binding domain of S, residues 331-524) (SARS-CoV-2, UniProt P0DTC2)
# Experiment: SPR
row,Binder,binding result
1,"C110 IgG (antibody, V domains shown) VH: QVQLQQSGAEVKKPGESLKISCKGSGYSFTSYWIGWVRQMPGKGLEWMGIIYPGDSDTRYSPSFQGQVTISADKSISTAYMQWSSLKASDTAMYYCARSFRDDPRIAVAGPADAFDIWGQGTMVTVSS VL: DIQMTQSPSTLSASVGDRVTITCRASQSISYWLAWYQQKPGKAPKLLIYQASSLESGVPSRFSGSESGTEFTLTISSLQPDDFATYYCQQYNSYPYTFGQGTKLEIK",binds
2,"C119 IgG (antibody, V domains shown) VH: QVQLVQSGAEVKKPGASVKVSCKASGYTFTSYYMHWVRQAPGQGLEWMGIINPSGGSTSYAQKLQGRVTMTRDTSTSTVYMELSSLRSEDTAVYYCARANHETTMDTYYYYYYMDVWGKGTTVTVSS VL: QSALTQPASVSGSPGQSITISCTGTSSDVGGYKYVSWYQRHPGKAPKLMIYDVSNRPSGVSNRFSGSKSGNTASLTISGLQAEDEADYYCSSYTSSSTSVVFGGGTQLTVL",binds
3,"C121 IgG (antibody, V domains shown) VH: not shown VL: QSALTQPASVSGSPGQSITISCTGTSSDVGSYNLVSWYQQHPGKAPKLMIYEGSKRPSGVSNRFSGSKSGNTASLTISGLQAEDEADYYCCSYAGSSTLVFGGGTKLTVL",binds
4,"C105 IgG (antibody, V domains shown) VH: QVQLVESGGGLIQPGGSLRLSCAASGFTVSSNYMSWVRQAPGKGLEWVSVIYSGGSTYYADSVKGRFTISRDNSKNTLYLQMNSLRAEDTAVYYCARGEGWELPYDYWGQGTLVTVSS VL: QSALTQPPSASGSPGQSVTISCTGTSSDVGGYKYVSWYQQHPGKAPKLMIYEVSKRPSGVPDRFSGSKSGNTASLTVSGLQAEDEADYYCSSYEGSNNFVVFGGGTKLTVL",binds
5,"C104 IgG (antibody, V domains shown) VH: QVQLQQWGAGLLKPSETLSLSCAVYGGSLSGYYWSWIRQPPGKGLEWIGEINHFGSTGYNPSLKSRVTISVDTSKSQFSVKLSSVTAADTAVYYCARKPLLYSNLSPGAFDIWGQGTMVTVSS VL: EIVLTQSPGTVSLSPGERATLSCWASQSVSASYLAWYQQKPGQAPRLLIYGASSRATGIPDRFSGSGSGTDFTLTISRLEPEDFAVYYCQQYGTTPRTFGGGTKVEIK",binds
6,"C002 IgG (antibody, V domains shown) VH: EVQLVESGGGVVQPGRSLRLSCAASGFTFSIYGMHWVRQAPGKGLEWVAVISYDGSNKYYADSVKGRFTISRDNSKNTLYLQMNSLRAEDTAVYYCAKEGRPSDIVVVVAFDYWGQGTLVTVSS VL: not shown",binds
